Residue numbers refer to the chain shown, from its start. Values belong to the binder of their own block, whether it stands above or below them.
Assays:
recombinant human IL-6 [1] = target: T1, recombinant human IL-6 (human, UniProt P05231); assay: antigen-binding ELISA (FIG. 9)
Protocol: (§1) An ELISA plate for antigen-binding assay was prepared as follows. A 96-well plate was coated with mouse monoclonal antibody MH166 recognizing a different epitope of human IL-6 from that recognized by SK2 (Matsuda, T. et al., Eur. J. Immunol. 18, 951–956, 1988), and after blocking, recombinant human IL-6 was added thereto. A sample of the chimeric SK2 antibody was sequentially diluted, added to each well, and then an alkaline phosphatase-conjugated goat anti-human IgG antibody (Sigma) was added thereto. After incubation and washing, substrate was added, and absorbance at 405 nm was measured.

biotinylated IL-6 [2] = target: T2, biotinylated IL-6 (human, UniProt P05231, biotinylated (site not stated)); assay: binding-inhibition ELISA, IL-6 to IL-6R (FIG. 10)
Protocol: (§2) For binding-inhibition assay, an ELISA plate was prepared as follows. A 96-well plate was coated with mouse monoclonal antibody, MT-18 (Hirata, Y. et al., J. Immunol., 143, 2900–2907, 1989), specific to human IL-6 receptor (IL-6R), and, after blocking, soluble recombinant human IL-6R (SR344) (Yasukawa, K. et al., J. Biochem. 108, 673–676, 1990) was added thereto. A sample of this chimeric SK2 antibody was sequentially diluted, and added with biotinylated IL-6 to each well, and after adding an alkaline phosphatase-conjugated streptavidin thereto, absorbance at 405 nm was measured.

recombinant human IL-6 [3] = target: T1, recombinant human IL-6; assay: ELISA, told in the description of the chimeric antibody
Protocol: as §1

biotinylated IL-6 [4] = target: T2, biotinylated IL-6; assay: binding-inhibition ELISA, IL-6 to IL-6R (FIG. 10), reference
Protocol: as §2

recombinant human IL-6 [5] = target: T1, recombinant human IL-6; assay: antigen-binding ELISA (FIG. 8)
Protocol: as §1

binding result (recombinant human IL-6 [1]): binds
binding result (biotinylated IL-6 [2]): binds
B4: reshaped human SK2 antibody, L chain version "b" and H chain version "a" (antibody, V domains shown)
VH: QVTLRESGPALVRPTQTLTLTCTFSGFSLSTSGMTVGWIRQPPGEALEWLAHIWWNDDKYYNPALKGRLAVSKDTSKNQVVLSMNTVGPGDTATYYCARMEDYDEAMDYWGQGILVTVSS
VL: DIQMTQSPSSLSASVGDRVTITCRASENIYSNLAWYQQKPGKAPKLLIYAATYLADGVPSRFSGSGSGTDYTFTISSLQPEDIATYYCQHFWGTPPFGQGTKVEIK

binding result (recombinant human IL-6 [3]): binds
binding result (biotinylated IL-6 [4]): binds
B5: chimeric SK2 antibody (antibody, V domains shown)
VH: QVTLKESGPGILQPSQTLSLTCSFSGFSLNTSGMTVGWIRQPSGKGLEWLAHIWWNDDKYYNPALKGRLTISKDTSNNQVFLKIASVVTADTATYYCARMEDYDEAMDYWGQGTSVTVSS
VL: DIQMTQSPASLSVSVGETVTITCRASENIYSNLAWYQQKQGKSPQLLVYAATYLADGVPSRFSGSGSGTQYSLKINSLQSEDFGSYYCQHFWGTPPFGSGTKLEIK

binding result (recombinant human IL-6 [5]): binds
B6: antibody comprising reshaped L chain version "b" and chimeric H chain (antibody, V domains shown)
VH: B5 VH
VL: B4 VL

binding result (recombinant human IL-6 [5]): binds
B7: antibody comprising reshaped L chain version "a" and chimeric H chain (antibody, V domains shown)
VH: B5 VH
VL: B4 VL with Y71F

More lines, now with the values behind:

B1: reshaped human SK2 antibody, L chain version "a" and H chain version "a" (antibody, V domains shown)
VH: B4 VH
VL: B4 VL with Y71F
binding result (recombinant human IL-6 [1]): binds
binding result (biotinylated IL-6 [2]): binds

B2: reshaped human SK2 antibody, L chain version "a" and H chain version "b" (antibody, V domains shown)
VH: B4 VH with S30N
VL: B4 VL with Y71F
binding result (recombinant human IL-6 [1]): binds
binding result (biotinylated IL-6 [2]): binds

B3: reshaped human SK2 antibody, L chain version "b" and H chain version "b" (antibody, V domains shown)
VH: B4 VH with S30N
VL: B4 VL
binding result (recombinant human IL-6 [1]): binds

Source: US5856135, “Reshaped human antibody to human interleukin-6” (Chugai Seiyaku Kabushiki Kaisha, dated 1999)
